Key:
[1] = target: Fr. 3 antigen (C-terminal region, zinc finger region, positions 294-449 of WT1) (human) (UniProt P19544); experiment: antigen inhibition ELISA on immobilised Fr. 3; antibody whose binding is inhibited: serum sample No. 7
[2] = target: Fr. 3 antigen (C-terminal region, zinc finger region, positions 294-449 of WT1) (human) (UniProt P19544); experiment: antigen inhibition ELISA on immobilised Fr. 3; antibody whose binding is inhibited: serum sample No. 9
[3] = target: Fr. 3 antigen (C-terminal region, zinc finger region, positions 294-449 of WT1) (human) (UniProt P19544); experiment: antigen inhibition ELISA on immobilised Fr. 3; antibody whose binding is inhibited: C-19 (PoAb)
[4] = target: Fr. 3 antigen (C-terminal region, zinc finger region, positions 294-449 of WT1) (human) (UniProt P19544); experiment: antigen inhibition ELISA on immobilised Fr. 3; antibody whose binding is inhibited: serum sample No. 3

Sequence of UniProt P19544 (P19544 294-449): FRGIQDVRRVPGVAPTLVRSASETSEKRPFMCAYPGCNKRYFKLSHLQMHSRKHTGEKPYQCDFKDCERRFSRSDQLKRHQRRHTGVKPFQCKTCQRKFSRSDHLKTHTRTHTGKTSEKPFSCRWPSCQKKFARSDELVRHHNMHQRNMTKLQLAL

| percent inhibition [1] [%] | percent inhibition [2] [%] | percent inhibition [3] [%] | percent inhibition [4] [%] | Substance |
| --- | --- | --- | --- | --- |
| 10 | 40 | 25 |  | Fr. 1 antigen (recombinant hWT1 Fr. 1, N-terminal region, positions 1-182 of WT1) (from UniProt P19544 1-182) |
| 20 |  | 50 | 70 | Fr. 2 antigen (hWT1 Fr. 2, central region, positions 181-324 of WT1) (from UniProt P19544 181-324) |
